Results on 2 molecules are retold here after publication PMC4216189 (Biochemistry, 2014).

The assay addresses T1, Escherichia coli lipoyl synthase, hexahistidine-tagged (Escherichia coli, UniProt P60716 1-321).
T1 sequence (looked up): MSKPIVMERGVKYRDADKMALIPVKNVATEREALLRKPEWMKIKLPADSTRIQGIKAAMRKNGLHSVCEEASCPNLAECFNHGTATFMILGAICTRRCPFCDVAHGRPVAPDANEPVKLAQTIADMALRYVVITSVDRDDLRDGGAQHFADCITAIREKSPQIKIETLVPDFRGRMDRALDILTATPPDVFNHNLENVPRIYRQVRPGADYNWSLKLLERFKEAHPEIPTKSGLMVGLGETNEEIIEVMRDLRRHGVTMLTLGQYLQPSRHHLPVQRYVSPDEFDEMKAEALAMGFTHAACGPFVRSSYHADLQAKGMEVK
The assay can be described thus: co-elution on anion-exchange chromatography.

B1: [8,8,8-2H3]-octanoyl-H protein of Escherichia coli (natural protein, UniProt P0A6T9 1-129, looked up)
chain: MSNVPAELKYSKEHEWLRKEADGTYTVGITEHAQELLGDMVFVDLPEVGATVSAGDDCAVAESVKAASDIYAPVSGEIVAVNDALSDSPELVNSEPYAGGWIFKIKASDESELESLLDATAYEALLEDE
modifications: N6-([8,8,8-2H3]-octanoyl)-lysine (position not given)
With B1, the binding result is reported as “binds”.

B2: octanoyl-H protein of Escherichia coli (unlabeled) (natural protein, UniProt P0A6T9 1-129, looked up)
chain: MSNVPAELKYSKEHEWLRKEADGTYTVGITEHAQELLGDMVFVDLPEVGATVSAGDDCAVAESVKAASDIYAPVSGEIVAVNDALSDSPELVNSEPYAGGWIFKIKASDESELESLLDATAYEALLEDE
modifications: N6-octanoyl-lysine (position not given)
B2: the binding result is on record as “binds”.
